Values of other authors in publication PMC7927047.

Tests used:
[1] = biological target: Cbl-b (Type II orientation, R911) (Homo sapiens) (UniProt Q13191); assay: NMR titration
[2] = biological target: Cbl-b (Type I orientation, R904) (Homo sapiens) (UniProt Q13191); assay: NMR titration
Cbl-b (Type I orientation, R904) (Homo sapiens), sequence (Q13191 whole entry): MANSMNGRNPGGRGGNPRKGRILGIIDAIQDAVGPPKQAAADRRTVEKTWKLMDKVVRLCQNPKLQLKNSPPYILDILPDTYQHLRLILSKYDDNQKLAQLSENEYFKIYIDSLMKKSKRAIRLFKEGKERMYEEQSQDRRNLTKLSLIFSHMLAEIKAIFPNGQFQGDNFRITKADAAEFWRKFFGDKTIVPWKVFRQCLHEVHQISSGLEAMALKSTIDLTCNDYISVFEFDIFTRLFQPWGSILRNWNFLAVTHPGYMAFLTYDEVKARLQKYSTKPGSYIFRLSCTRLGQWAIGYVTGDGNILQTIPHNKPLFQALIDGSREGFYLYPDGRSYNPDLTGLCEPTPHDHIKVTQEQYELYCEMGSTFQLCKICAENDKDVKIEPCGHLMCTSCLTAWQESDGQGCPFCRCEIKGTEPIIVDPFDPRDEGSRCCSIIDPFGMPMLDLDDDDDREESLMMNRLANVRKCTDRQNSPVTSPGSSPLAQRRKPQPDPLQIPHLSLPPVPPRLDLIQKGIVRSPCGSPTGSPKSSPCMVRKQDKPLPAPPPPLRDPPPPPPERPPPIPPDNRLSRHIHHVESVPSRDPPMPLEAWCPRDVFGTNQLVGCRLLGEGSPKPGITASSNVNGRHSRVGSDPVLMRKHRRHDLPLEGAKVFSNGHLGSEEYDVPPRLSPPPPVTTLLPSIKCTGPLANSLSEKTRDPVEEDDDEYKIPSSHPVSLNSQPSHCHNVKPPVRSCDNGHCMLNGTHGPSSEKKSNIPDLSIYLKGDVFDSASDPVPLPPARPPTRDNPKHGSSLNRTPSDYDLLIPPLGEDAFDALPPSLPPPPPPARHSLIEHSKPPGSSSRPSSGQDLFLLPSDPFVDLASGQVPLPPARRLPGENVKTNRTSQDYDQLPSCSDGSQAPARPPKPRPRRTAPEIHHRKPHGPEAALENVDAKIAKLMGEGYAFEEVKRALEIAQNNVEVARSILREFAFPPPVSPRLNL

CIN85 SH3, sequence (Q96B97 1-58): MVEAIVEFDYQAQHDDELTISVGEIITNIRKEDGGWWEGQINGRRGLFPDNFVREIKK
Cbl-b (Type II orientation, R911) (Homo sapiens), sequence (Q13191 whole entry): as the sequence (Q13191 whole entry) above

CIN85 SH3 (from UniProt Q96B97)
Kd [1]: 2 µM
Kd [2]: 46.9 µM
